Experimental data published in US20240400675A1 (published 2024).
Substitutions are numbered along the chain they refer to. Numbers in names are those of the source. Each block holds one binder with its values, some of them ahead of it.

Key:
human CLDN6 [1] = biological target: T1, human CLDN6 (human, UniProt P56747 1-220); assay: flow cytometry on HEK293E cells expressing CLDN6 or CLDN9; EC50 on CLDN9 cells divided by EC50 on CLDN6 cells
T1 construct: also called Claudin 6
T1 sequence: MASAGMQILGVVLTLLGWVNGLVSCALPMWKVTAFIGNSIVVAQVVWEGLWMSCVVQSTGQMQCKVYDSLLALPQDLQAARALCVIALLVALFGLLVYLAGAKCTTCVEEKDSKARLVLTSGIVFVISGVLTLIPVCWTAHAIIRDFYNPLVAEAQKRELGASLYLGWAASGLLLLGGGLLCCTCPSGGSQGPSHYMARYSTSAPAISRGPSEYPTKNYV
Experimental: (§1) The following experiments used to screen CLDN6 binding domains were generally performed as follows. HEK293T or HEK293E cells were respectively stably or transiently transfected to express CLDN6, CLND9, or other targets of interest. 48 hours post transfection, cells were harvested and incubated with dilutions of the indicated test articles for 1 hour at 4° C. […] Binding was then assessed via flow cytometry.

human CLDN6 [2] = biological target: T1, human CLDN6; assay: flow cytometry on transfected cells
human CLDN6 [3] = biological target: T1, human CLDN6; assay: flow cytometry on HEK293E cells expressing CLDN6
Experimental: as §1

human CLDN6 [4] = biological target: T1, human CLDN6; assay: flow cytometry on HEK293-Trex cells stably expressing the claudin
human CLDN9 = biological target: T2, human CLDN9 (human, UniProt O95484 1-217); assay: flow cytometry on transfected HEK293E cells
T2 construct: also called CLND9
T2 sequence: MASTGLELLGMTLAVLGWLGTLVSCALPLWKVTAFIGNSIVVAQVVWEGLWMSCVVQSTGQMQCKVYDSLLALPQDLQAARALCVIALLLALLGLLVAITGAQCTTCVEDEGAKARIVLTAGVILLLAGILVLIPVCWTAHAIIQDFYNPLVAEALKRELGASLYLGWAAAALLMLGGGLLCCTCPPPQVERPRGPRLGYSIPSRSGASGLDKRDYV
Experimental: as §1

- binding result (human CLDN6 [4]): binds
B5: XENP34221, humanized C6-30 H2L2 bivalent mAb (antibody, human IgG1, kappa, V domains shown)
VH: EVQLVQSGAEVKKPGESLRISCKTSGYTFTEYTMHWVRQMPGKSLEWMGGIDPNNGNTHYNQKFQGHVTISVDKSISTAYLQWSSLKASDTAMYYCARIYYFGRLYFDFWGAGTLVTVSS
VL: DIQMTQSPDSLAVSLGERATINCKASEDIYNRLAWYQQKPGQVPKLLISGATSLETGVPSRFSGSGSGKDYTLTISSLQAEDVAVYYCQQYWSSPLTFGGGTKVEIKR
notes: IgG1 with ablation variant; copies: 2 + 2

- binding result (human CLDN6 [2]): binds
B6: XENP34219, humanized C6-30 H1L2 bivalent mAb (antibody, human IgG1, kappa, V domains shown)
VH: QVQLVQSGAEVKKPGASVKVSCKTSGYTFTEYTMHWVRQAPGQSLEWMGGIDPNNGNTHYNQKFQGRVTITVDKSASTAYMELSSLRSEDTAVYYCARIYYFGRLYFDFWGAGTLVTVSS
VL: B5 VL
notes: as for B5

- binding result (human CLDN6 [2]): binds
B7: XENP34220, humanized C6-30 H2L1 bivalent mAb (antibody, human IgG1, kappa, V domains shown)
VH: B5 VH
VL: DIQMTQSPSSLSASVGDRVTITCQASEDIYNRLAWYQQKPGKVPKLLISGATSLETGVPSRFSGSGSGKDYTFTISSLQPEDIATYYCQQYWSSPLTFGGGTKVEIKR
notes: IgG1 backbone with ablation variant; copies: 2 + 2

- binding result (human CLDN9): binds
B9: XENP35102 having H2.9_L1 (antibody, human IgG1, kappa, V domains shown)
VH: B5 VH with G56A
VL: B7 VL
notes: Bivalent mAb; also called C6-30 H2.9_L1; copies: 2 + 2

- binding result (human CLDN6 [3]): binds
B11: XENP37231 (C6-30_H1.24_L1.187), 2+1 Fab2-scFv-Fc bsAb with CD3 High-Int #1 (bispecific antibody)
heavy 1: QVQLVQSGAEVKKPGASVKVSCKTSGYTFTEYTMHWVRQAPGQSLEWMGGIDPNNGNTHYNQKFQGRVTITVDKSASTAYMELSSLRSEDTAVYYCARIYYLGRLYFDFWGAGTLVTVSSASTKGPSVFPLAPSSKSTSGGTAALGCLVKDYFPEPVTVSWNSGALTSGVHTFPAVLQSSGLYSLSSVVTVPSSSLGTQTYICNVNHKPSDTKVDKKVEPKSCDKTHTCPPCPAPPVAGPSVFLFPPKPKDTLMISRTPEVTCVVVDVKHEDPEVKFNWYVDGVEVHNAKTKPREEEYNSTYRVVSVLTVLHQDWLNGKEYKCKVSNKALPAPIEKTISKAKGQPREPQVYTLPPSREEMTKNQVSLTCDVSGFYPSDIAVEWESDGQPENNYKTTPPVLDSDGSFFLYSKLTVDKSRWEQGDVFSCSVMHEALHNHYTQKSLSLSPGK
heavy 2: QVQLVQSGAEVKKPGASVKVSCKTSGYTFTEYTMHWVRQAPGQSLEWMGGIDPNNGNTHYNQKFQGRVTITVDKSASTAYMELSSLRSEDTAVYYCARIYYLGRLYFDFWGAGTLVTVSSASTKGPSVFPLAPSSKSTSGGTAALGCLVKDYFPEPVTVSWNSGALTSGVHTFPAVLQSSGLYSLSSVVTVPSSSLGTQTYICNVNHKPSNTKVDKKVEPKSCGGGGSGGGGSQAVVTQEPSLTVSPGGTVTLTCGSSTGAVTTSNYANWVQQKPGKSPRGLIGGTNKRAPGVPARFSGSLLGGKAALTISGAQPEDEADYYCALWYSNHWVFGGGTKLTVLGKPGSGKPGSGKPGSGKPGSEVQLVESGGGLVQPGGSLRLSCAASGFTFSTYAMNWVRQAPGKGLEWVGRIRSKANNYATYYADSVKGRFTISRDDSKNTLYLQMNSLRAEDTAVYYCVRHGNFGDSYVSWFAYWGQGTLVTVSSGGGGSGGGGSKTHTCPPCPAPPVAGPSVFLFPPKPKDTLMISRTPEVTCVVVDVKHEDPEVKFNWYVDGVEVHNAKTKPREEQYNSTYRVVSVLTVLHQDWLNGKEYKCKVSNKALPAPIEKTISKAKGQPREPQVYTLPPSREQMTKNQVKLTCLVKGFYPSDIAVEWESNGQPENNYKTTPPVLDSDGSFFLYSKLTVDKSRWQQGNVFSCSVMHEALHNHYTQKSLSLSPGK
light: not shown
notes: copies: 1 + 1 + 2

More lines, now with the values behind:

B1: XENP34218, humanized C6-30 H1L1 bivalent mAb (antibody, human IgG1, kappa, V domains shown)
VH: B6 VH
VL: B7 VL
notes: IgG1 backbone with E233P/L234V/L235A/G236del/S267K ablation variant; also called XENP34218_HIL1
- CLDN9/CLDN6 EC50 ratio (human CLDN6 [1]): 23

B2: XENP36972 having H1_L1.187 (antibody, human IgG1, kappa, V domains shown)
VH: B6 VH
VL: B7 VL with S94A
notes: Bivalent mAb; also called C6-30 H1_L1.187; copies: 2 + 2
- CLDN9/CLDN6 EC50 ratio (human CLDN6 [1]): 52.6

B3: XENP35093 (having C6-30 H1.9_L1) (antibody, human IgG1, kappa, V domains shown)
VH: B6 VH with G56A
VL: B7 VL
notes: Bivalent mAb; also called G55A; copies: 2 + 2
- binding result (human CLDN6 [2]): binds

B4: XENP37233 (C6-30_H2.91_L1.187), 2+1 Fab2-scFv-Fc bsAb with CD3 High-Int #1 (bispecific antibody)
heavy 1: EVQLVQSGAEVKKPGESLRISCKTSGYTFTEYTMHWVRQMPGKSLEWMGGIDPNNFNTHYNQKFQGHVTISVDKSISTAYLQWSSLKASDTAMYYCARIYYFGRLYFDFWGAGTLVTVSSASTKGPSVFPLAPSSKSTSGGTAALGCLVKDYFPEPVTVSWNSGALTSGVHTFPAVLQSSGLYSLSSVVTVPSSSLGTQTYICNVNHKPSDTKVDKKVEPKSCDKTHTCPPCPAPPVAGPSVFLFPPKPKDTLMISRTPEVTCVVVDVKHEDPEVKFNWYVDGVEVHNAKTKPREEEYNSTYRVVSVLTVLHQDWLNGKEYKCKVSNKALPAPIEKTISKAKGQPREPQVYTLPPSREEMTKNQVSLTCDVSGFYPSDIAVEWESDGQPENNYKTTPPVLDSDGSFFLYSKLTVDKSRWEQGDVFSCSVMHEALHNHYTQKSLSLSPGK
heavy 2: EVQLVQSGAEVKKPGESLRISCKTSGYTFTEYTMHWVRQMPGKSLEWMGGIDPNNFNTHYNQKFQGHVTISVDKSISTAYLQWSSLKASDTAMYYCARIYYFGRLYFDFWGAGTLVTVSSASTKGPSVFPLAPSSKSTSGGTAALGCLVKDYFPEPVTVSWNSGALTSGVHTFPAVLQSSGLYSLSSVVTVPSSSLGTQTYICNVNHKPSNTKVDKKVEPKSCGGGGSGGGGSQAVVTQEPSLTVSPGGTVTLTCGSSTGAVTTSNYANWVQQKPGKSPRGLIGGTNKRAPGVPARFSGSLLGGKAALTISGAQPEDEADYYCALWYSNHWVFGGGTKLTVLGKPGSGKPGSGKPGSGKPGSEVQLVESGGGLVQPGGSLRLSCAASGFTFSTYAMNWVRQAPGKGLEWVGRIRSKANNYATYYADSVKGRFTISRDDSKNTLYLQMNSLRAEDTAVYYCVRHGNFGDSYVSWFAYWGQGTLVTVSSGGGGSGGGGSKTHTCPPCPAPPVAGPSVFLFPPKPKDTLMISRTPEVTCVVVDVKHEDPEVKFNWYVDGVEVHNAKTKPREEQYNSTYRVVSVLTVLHQDWLNGKEYKCKVSNKALPAPIEKTISKAKGQPREPQVYTLPPSREQMTKNQVKLTCLVKGFYPSDIAVEWESNGQPENNYKTTPPVLDSDGSFFLYSKLTVDKSRWQQGNVFSCSVMHEALHNHYTQKSLSLSPGK
light: not shown
notes: copies: 1 + 1 + 2
- binding result (human CLDN6 [3]): binds

B8: XENP35101 having H2.8_L1 (antibody, human IgG1, kappa, V domains shown)
VH: B5 VH with G56D
VL: B7 VL
notes: Bivalent mAb; also called C6-30 H2.8_L1; copies: 2 + 2
- binding result (human CLDN9): binds

B10: XENP37227 (C6-30_H1.9_L1.187), 2+1 Fab2-scFv-Fc bsAb with CD3 High-Int #1 (bispecific antibody)
heavy 1: B11 heavy 1 with G56A, L102F
heavy 2: B11 heavy 2 with G56A, L102F
light: not shown
notes: copies: 1 + 1 + 2
- binding result (human CLDN6 [3]): binds
